Data from US6355245.

Tests used:
[1] = molecular target: human complement component C5 (purified) (human) (UniProt P01031); experiment: cell-based or functional assay
[2] = molecular target: human complement component C5 (purified) (human) (UniProt P01031); experiment: plate-bound C3, C5 20 µg/ml with 5G1.1 Fab 20 µg/ml, bound C5 detected with N19/8; competitor C3
[3] = molecular target: human complement component C5 (purified) (human) (UniProt P01031); experiment: plate-bound C4, C5 20 µg/ml with 5G1.1 Fab 20 µg/ml, bound C5 detected with N19/8; competitor C4
[4] = molecular target: human complement component C5 (purified) (human) (UniProt P01031); experiment: solution equilibrium with C5, free antibody measured by ELISA (Friguet method), Scatchard analysis

Sequence of UniProt P01031 (P01031 19-673 T389I limits assumed, chain 1 of 2): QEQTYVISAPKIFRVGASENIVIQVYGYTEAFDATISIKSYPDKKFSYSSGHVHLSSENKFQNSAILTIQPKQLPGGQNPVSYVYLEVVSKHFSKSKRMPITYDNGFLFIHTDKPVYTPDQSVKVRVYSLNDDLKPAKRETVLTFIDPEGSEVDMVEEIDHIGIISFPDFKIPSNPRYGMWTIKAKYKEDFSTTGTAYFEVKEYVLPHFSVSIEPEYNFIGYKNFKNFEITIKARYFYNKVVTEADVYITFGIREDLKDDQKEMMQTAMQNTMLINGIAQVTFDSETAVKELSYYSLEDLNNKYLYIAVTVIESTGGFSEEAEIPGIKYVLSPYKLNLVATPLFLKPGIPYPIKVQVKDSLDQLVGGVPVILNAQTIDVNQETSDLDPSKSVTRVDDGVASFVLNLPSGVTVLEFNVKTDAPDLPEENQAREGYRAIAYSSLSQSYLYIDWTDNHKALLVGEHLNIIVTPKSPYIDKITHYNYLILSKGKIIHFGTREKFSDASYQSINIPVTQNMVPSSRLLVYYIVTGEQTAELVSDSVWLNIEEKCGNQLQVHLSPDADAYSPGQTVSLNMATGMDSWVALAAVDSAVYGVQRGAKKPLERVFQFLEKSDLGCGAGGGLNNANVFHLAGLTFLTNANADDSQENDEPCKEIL
Sequence of UniProt P01031 (P01031 678-1676 V802I limits assumed, chain 2 of 2): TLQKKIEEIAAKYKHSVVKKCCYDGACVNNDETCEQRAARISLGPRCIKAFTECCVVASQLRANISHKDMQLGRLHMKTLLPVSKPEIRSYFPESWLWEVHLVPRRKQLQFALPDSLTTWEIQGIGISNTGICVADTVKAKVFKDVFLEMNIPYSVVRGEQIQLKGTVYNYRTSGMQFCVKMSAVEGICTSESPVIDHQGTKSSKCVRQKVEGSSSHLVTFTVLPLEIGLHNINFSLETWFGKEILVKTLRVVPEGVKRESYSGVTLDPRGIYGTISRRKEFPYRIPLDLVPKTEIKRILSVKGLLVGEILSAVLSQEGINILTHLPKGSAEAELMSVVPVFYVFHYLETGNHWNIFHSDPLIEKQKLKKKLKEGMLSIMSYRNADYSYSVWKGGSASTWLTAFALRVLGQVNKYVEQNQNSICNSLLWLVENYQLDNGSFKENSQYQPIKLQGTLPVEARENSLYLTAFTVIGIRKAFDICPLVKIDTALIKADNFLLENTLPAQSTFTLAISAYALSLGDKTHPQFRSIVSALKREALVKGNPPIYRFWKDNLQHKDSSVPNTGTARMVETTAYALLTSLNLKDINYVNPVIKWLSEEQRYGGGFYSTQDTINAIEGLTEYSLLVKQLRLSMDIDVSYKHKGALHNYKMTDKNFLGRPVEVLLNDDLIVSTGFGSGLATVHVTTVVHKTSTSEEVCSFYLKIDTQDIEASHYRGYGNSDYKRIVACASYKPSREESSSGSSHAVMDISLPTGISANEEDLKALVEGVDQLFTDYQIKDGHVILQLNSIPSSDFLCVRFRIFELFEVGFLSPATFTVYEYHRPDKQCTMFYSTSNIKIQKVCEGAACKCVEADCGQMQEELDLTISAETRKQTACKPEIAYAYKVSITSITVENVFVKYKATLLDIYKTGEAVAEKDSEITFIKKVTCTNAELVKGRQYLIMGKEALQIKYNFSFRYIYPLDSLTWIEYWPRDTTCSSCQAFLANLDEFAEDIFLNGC

Row | concentration that completely blocks C5a generation [1] [µM] | percent inhibition of C5 binding to C3 [2] [%] | percent inhibition of C5 binding to C4 [3] [%] | Kd [4] [nM] | Substance | blocking of complement hemolytic activity and of C5a generation [1] [%] | concentration that completely blocks C5b-9-mediated hemolysis in 20% human serum [1] [µM] | concentration that blocks serum hemolytic activity, 20% v/v human serum [1] [µg/mL] | molar ratio at which serum hemolytic activity is blocked, 20% v/v human serum (molar ratio 5G1.1/C5) [1] | serum hemolytic activity (chicken erythrocyte hemolysis assay, human serum) (molar ratio antibody/C5) [1]
1 | – | – | – | – | chimeric N19/8 Fab (N19-8 VL/human kappa constant region and N19-8 VH/human IgG1 Fd) | 50 | – | – | – | –
2 | 0.06 to 0.08 | 60 to 90 | 60 to 90 | – | 5G1.1 Fab (derived from 5G1.1 by conventional papain digestion) | – | 0.06 to 0.08 | – | – | –
3 | 0.06 to 0.08 | – | – | 0.03 | 5G1.1 monoclonal antibody (native murine anti-human C5 mAb, produced by hybridoma 5G1.1, ATCC HB-11625) | – | 0.06 to 0.08 | 6.25 | 0.5 | 0.5
4 | 0.15 | – | – | – | m5G1.1 scFv (non-humanized murine 5G1.1 scFv, 5G1.1M1scFv) | – | 0.15 | – | – | –
